{"source": "paper PMC11464722", "about": "(Nature Communications, 2024)", "binders": {"B1": {"name": "mNbE (N45K, Q117K, Q120P)-6xHis (VHH)", "VHH": "QVQLVESGGGLVQAGGSLRLSCAASGSISSISTMGWYRQAPGKERELVAAITSGGSTNYADSVKGRFTISRDNAKNTVYLQMNSLKPEDTAVYYCNFKYYSGSYFYKSEYDYWGKGTPVTVSS"}}, "biological_target": "SNAP-tagged murine µOR on HEK293 cells (murine, UniProt P42866, SNAP-Lumi4-Tb (terbium cryptate) on the SNAP tag)", "sequence (P42866 whole entry)": "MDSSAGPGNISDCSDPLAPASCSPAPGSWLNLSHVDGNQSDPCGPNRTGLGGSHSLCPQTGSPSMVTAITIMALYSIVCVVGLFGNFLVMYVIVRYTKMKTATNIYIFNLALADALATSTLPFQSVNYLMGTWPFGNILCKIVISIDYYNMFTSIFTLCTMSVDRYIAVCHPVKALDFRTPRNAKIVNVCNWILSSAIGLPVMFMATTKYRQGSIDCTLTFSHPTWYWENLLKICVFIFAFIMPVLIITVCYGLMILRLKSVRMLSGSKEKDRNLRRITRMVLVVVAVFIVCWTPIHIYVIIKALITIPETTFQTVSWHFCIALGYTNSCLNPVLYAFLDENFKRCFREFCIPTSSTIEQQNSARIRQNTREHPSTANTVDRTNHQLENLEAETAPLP", "experiment": "AlphaScreen or HTRF"}
{"binder": "B1", "values": [{"measurement": "binding result", "value": "binds"}]}
